# B1: mAb nCoV396 (recombinant human IgG1) (antibody, V domains shown)
# VH: QVQLVESGGGVVQPGRSLRLSCAASGFTFSSYIMHWVRQAPGKGLEWVAVISYDGSNEAYADSVKGRFTISRDNSKNTLYLQMSSLRAEDTGVYYCARETGDYSSSWYDSWGRGTLVTVSS
# VL: QLVLTQSPSASASLGASVKLTCTLSSGHSNYAIAWHQQQPEKGPRYLMKVNSDGSHTKGDGIPDRFSGSSSGAERYLTISSLQSEDEADYYCQTWGTGIQVFGGGTKLTVL
# notes: also called mAb-396; IgH ID H16030
# B2: human monoclonal antibody nCoV396, recombinant IgG1 (antibody, V domains shown)
# VH: B1 VH
# VL: B1 VL
# notes: also called mAb nCoV396
# Key:
# Conditions in all cases: both partners purified
# [1] = biological target: T1, SARS-CoV-2 nucleocapsid (N) protein, full length (N-FL, 1-419) (Severe acute respiratory syndrome …, UniProt P0DTC9); experiment: SPR; Biacore X100; […]; room temperature; 1:1 binding model, […]
# T1 construct: also called SARS-CoV-2 N protein
# [2] = biological target: T2, SARS-CoV nucleocapsid (N) protein, full length (N-FL) (Severe acute respiratory syndrome …, UniProt P59595); experiment: as above
# T2 construct: also called SARS-CoV N protein; SARS-CoV N-FL
# [3] = biological target: T3, MERS-CoV nucleocapsid (N) protein, full length (N-FL) (MERS-CoV, strain , UniProt K9N4V7); experiment: as above
# T3 construct: also called MERS-CoV N protein; MERS-CoV N-FL
# [4] = biological target: T4, SARS-CoV-2 full-length nucleocapsid (N) protein (N-FL: 1-419) (Severe acute respiratory syndrome …, UniProt P0DTC9); experiment: SPR; Biacore X100; […]; room temperature; 1:1 binding model
# T4 construct: also called SARS-CoV-2 N protein
# [5] = biological target: T5, SARS-CoV N protein (N-FL) (Severe acute respiratory syndrome …, UniProt P59595); experiment: as above
# T5 construct: also called SARS-CoV N-FL
# [6] = biological target: T6, MERS-CoV N protein (N-FL) (MERS-CoV, strain , UniProt K9N4V7); experiment: as above
# T6 construct: also called MERS-CoV N-FL; Middle East respiratory syndrome coronavirus N protein
Binder,koff [1],kon [1],Kd [2],koff [2],kon [2],Kd [3],koff [3],kon [3],Kd [4],Kd [5],Kd [6]
B1,2.89e-06 s⁻¹,2830 M⁻¹ s⁻¹,7.44 nM,0.000295 s⁻¹,39700 M⁻¹ s⁻¹,7.43 nM,0.0004 s⁻¹,53800 M⁻¹ s⁻¹,–,–,–
B2,–,–,–,–,–,–,–,–,1.02 nM,7.4 nM,7.4 nM

# — PMC8113585 (Nature Communications, 2020)
